Consider four molecules from patent US20250171542A1 (ADEPT THERAPEUTICS, published 2025).

Positions count from the first letter of the chain named.

The term IC50 denotes the concentration that inhibits the measured activity by half. A high value points to lower potency.

B1: 74A9 (antibody, human IgG1, V domains shown)
VH: QSVEESGGRLVTPGTPLTLTCAVSGFSLSTYALGWVRQAPGKGLEWIGSISIGGATYYASWAKGRFTISKTSTTVDLKIASPTTEDTATYFCARNVDSIYLDAFHTWGPGTLVTVSL
VL: DIVMTQTPASVEAAVGGTVTIKCQASQNIYNNLAWYQQKPGQPPKLLIYRASTLASGVPSRFKGSGSGTEYTLTISDLECDDAATYYCQTYYLTTTTNAFGGGTEVVVK
B2: 28B3 (antibody, human IgG1, V domains shown)
VH: QSVEESGGRLVTPGTPLTLSCTASGFSLSSYYMIWVRQAPGKGLEYIGYVYTGSGNTWYASWAKGRFAISKASTTVDLMITSPTTEDTATYFCASGADGVYDWGWDIWGPGTLVTVSL
VL: DIVMTQTPASVEAAVGDTVTIKCQASQSIYSLLAWYQQKPGQRPKLLIAGASNLESGVPSRFSGSGSGTEYTLTISALECADAATYYCQNNYDSGRIYGLAFGGGTEVVVK
B3: 27A2 (antibody, human IgG1, V domains shown)
VH: QEQLEESGGGLVQPEGSLTLTCTASGFSFSSNHYMSWVRQAPGKGLEWIGSIGVGSGITDYASWAKGRFTISKASSTTLTLQMTTLTAADTAIYFCARWTSGGGGFGLWGPGTLVTVSS
VL: QVLTQTSSPVSAAVGGTVTINCQSSQTIYSDYLFWYQQTPGQPPKLLIYQTSTLASGVPSRFKGSGSGTEFTLTISEIQCDDAATYYCQGYYSGYIWTFGGGTEVVVR
B4: 56H3 (antibody, human IgG1, V domains shown)
VH: B3 VH with E5V, G26E, S31N, H33Y, I49L, V54I, L79V
VL: B3 VL with T39K, K63S, E70Q, E77G, I78V, R108N

Chain of mouse PD-L1 (Sino Biological, Cat #50010-M08H) (Q9EP73 19-238 limits assumed, stated change not applied): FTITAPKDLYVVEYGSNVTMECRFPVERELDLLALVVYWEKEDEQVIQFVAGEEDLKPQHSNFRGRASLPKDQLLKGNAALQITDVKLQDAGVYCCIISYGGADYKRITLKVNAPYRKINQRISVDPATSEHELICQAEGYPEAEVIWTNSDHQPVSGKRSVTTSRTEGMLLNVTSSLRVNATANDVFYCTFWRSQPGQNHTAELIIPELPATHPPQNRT
T6 sequence (Q9NZQ7 19-238): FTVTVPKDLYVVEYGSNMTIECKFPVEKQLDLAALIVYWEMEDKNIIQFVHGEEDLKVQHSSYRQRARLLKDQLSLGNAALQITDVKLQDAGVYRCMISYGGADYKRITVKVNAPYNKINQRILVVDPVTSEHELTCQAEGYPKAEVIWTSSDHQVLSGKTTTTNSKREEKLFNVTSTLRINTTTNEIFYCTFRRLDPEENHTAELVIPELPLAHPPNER

The target in one assay is T1, human PD-L1-mFc fusion protein (Sino Biological, Cat #10084-H05H) (human, UniProt Q9NZQ7 19-239).
T1 construct: Bought protein; also called human PD-L1 mouse Fc fusion protein; not shown: mouse Fc
T1 sequence (Q9NZQ7 19-239 limits assumed): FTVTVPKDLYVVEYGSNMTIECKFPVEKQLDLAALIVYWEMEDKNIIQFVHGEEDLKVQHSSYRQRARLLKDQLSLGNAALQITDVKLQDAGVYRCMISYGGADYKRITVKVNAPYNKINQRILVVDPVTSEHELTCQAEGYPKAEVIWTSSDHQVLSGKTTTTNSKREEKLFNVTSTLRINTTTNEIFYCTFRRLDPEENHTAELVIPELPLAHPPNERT
The assay is described as follows: competition ELISA, coated human PD-L1-mFc, competitor human PD-1-His-hFc-Biotin. The protocol:
Briefly, microplates were precoated with […] of human PD-L1-mFc fusion protein (Sino Biological, Cat #10084-H05H) diluted in 1×PBS (GIBCO) and incubated overnight at 4° C.; Plates were washed four times with 300 μl/well washing buffer (1×PBST, diluted from 20×PBST (Thermo Scientific) with distilled water)) and then blocked with 300 μl/well of blocking buffer (1×PBST/3% BSA) for 2 hours at RT on shaker (100 rpm). […] Plates were washed and added with 100 μl/well TMB substrate for color development at room temperature in dark for up to 10 minutes. After addition of 50 μl/well of stop solution (1N H₂SO₄), plates were read at 450 nm on a plate reader (SpectraMax M5).
For orientation: In an ELISA, binding on a coated surface is turned into a signal by an enzyme label.
Molecule B1 gave an IC50 of 2.3 nM.
In turn, B2 returned an IC50 of 1.5 nM.
The same measure, in the same setting: for B3 the value was 1.9 nM; for B4, 2.1 nM.

The target in the next assay is T2, human PD-L1 expressed on cell surface (human, UniProt Q9NZQ7 19-290). The assay is described as follows: cell-based or functional assay.
T2 sequence (Q9NZQ7 19-290 limits assumed): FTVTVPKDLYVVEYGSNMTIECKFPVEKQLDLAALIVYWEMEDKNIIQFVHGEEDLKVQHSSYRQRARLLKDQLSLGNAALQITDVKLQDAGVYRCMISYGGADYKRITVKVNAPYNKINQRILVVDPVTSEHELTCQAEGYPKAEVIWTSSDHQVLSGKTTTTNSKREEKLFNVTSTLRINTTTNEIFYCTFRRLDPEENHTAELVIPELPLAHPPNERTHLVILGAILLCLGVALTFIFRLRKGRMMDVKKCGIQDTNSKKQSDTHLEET
B1: the “IC50 (nM), Promega PD-1/PD-L1 blockade reporter assay” value was determined as 0.29 nM.
The same measure, in the same setting: for B2 the value was 0.24 nM; for B3, 0.23 nM; for B4, 0.36 nM.

The target in a further assay is T3, B7-H3 (Sino Biological, Cat #11188-H08H) (UniProt Q5ZPR3 29-461).
T3 sequence (looked up): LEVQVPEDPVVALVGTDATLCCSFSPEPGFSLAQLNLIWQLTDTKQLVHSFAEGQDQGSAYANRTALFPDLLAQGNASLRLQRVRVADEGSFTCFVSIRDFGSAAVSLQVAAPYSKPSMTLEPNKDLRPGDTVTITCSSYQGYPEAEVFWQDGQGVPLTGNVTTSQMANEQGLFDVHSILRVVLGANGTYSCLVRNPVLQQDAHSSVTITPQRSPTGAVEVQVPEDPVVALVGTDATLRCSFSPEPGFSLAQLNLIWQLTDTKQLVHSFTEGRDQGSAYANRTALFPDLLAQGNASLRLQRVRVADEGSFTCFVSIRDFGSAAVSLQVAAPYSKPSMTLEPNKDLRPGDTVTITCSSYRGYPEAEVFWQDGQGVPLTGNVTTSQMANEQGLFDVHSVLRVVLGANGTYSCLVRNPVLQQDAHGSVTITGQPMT
Description: ELISA.
In the case of B1, the binding result is “no binding”.
As to B2, the binding result is on record as “no binding”.
For B3, the binding result is “no binding”.
Same read-out and setting: the value for B4 was “no binding”.

In a further assay the target is T4, CD80 (Sino Biological, Cat #10698-H08H) (UniProt P33681 35-242).
T4 sequence (looked up): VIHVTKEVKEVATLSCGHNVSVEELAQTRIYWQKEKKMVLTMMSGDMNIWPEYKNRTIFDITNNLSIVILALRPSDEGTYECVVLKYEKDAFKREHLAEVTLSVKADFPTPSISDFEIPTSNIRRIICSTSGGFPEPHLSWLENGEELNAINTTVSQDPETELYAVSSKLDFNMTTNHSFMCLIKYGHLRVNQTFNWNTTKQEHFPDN
The assay is described as follows: ELISA.
On to B1, for which the binding result was “no binding”.
On the same count and under the same terms, the value for B2 was “no binding”; that for B3 was “no binding”.
Still for that read-out and setting: the value for B4 was “no binding”.

A further assay concerns the target mouse PD-L1 (Sino Biological, Cat #50010-M08H) (mouse, UniProt Q9EP73 19-238). Description: ELISA.
Regarding B1, the binding result is “no binding”.
The same measure, in the same setting: for B2 the value was “no binding”; for B3, “no binding”.
Take B4: the binding result is reported as “no binding”.

The target of a further assay is T5, CD86 (Sino Biological, Cat #10699-H08H) (UniProt P42081 24-245).
T5 sequence (looked up): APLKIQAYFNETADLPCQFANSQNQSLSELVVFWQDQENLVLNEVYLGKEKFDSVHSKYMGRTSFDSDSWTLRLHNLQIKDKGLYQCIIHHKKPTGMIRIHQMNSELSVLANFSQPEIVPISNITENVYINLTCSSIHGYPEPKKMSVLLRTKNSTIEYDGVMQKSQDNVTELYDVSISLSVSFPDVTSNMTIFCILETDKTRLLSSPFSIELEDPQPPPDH
Description: ELISA.
B1: the binding result was “no binding”.
Still for that read-out and setting: for B2 the value was “no binding”; for B3, “no binding”; for B4, “no binding”.

Another assay has as its target T6, human PD-L1-His (Sino Biological, Cat #10084-H08H) (human, UniProt Q9NZQ7 19-238).
T6 construct: Bought protein; also called human PD-L1 ECD-His; recombinant human PD-L1-His protein; not shown: His tag
The assay is described as follows: competition ELISA (epitope binning): coated human PD-L1-His, antibody pre-incubated, then biotinylated Avelumab (competitor), detection with HRP-avidin.
For the molecule B4, the “IC50 (read off the curve)” value is about 0.1 µg/mL.

The target of another assay is T2, human PD-L1 expressed on cell surface. Description: cell-based or functional assay. This is another data set of the same source.
Turning to B1, the “IC50 (nM), Promega PD-1/PD-L1 blockade reporter assay, another assay” value (shortened to “IC50 (nM) … another assay”) was 0.46 nM.
In the case of B2, the “IC50 (nM) … another assay” value turned out to be 0.33 nM.
For B3, the “IC50 (nM) … another assay” value worked out at 0.35 nM.
